The target in this test is ALIX BRO1 domain (human). Description: recruitment to supported lipid bilayers (time-lapse confocal fluorescence microscopy); supported bilayers DOPC:DOPE:PI:LBPA (4.99:2:1:2 mol) preincubated 40 min with 3.7 µM ALIX BRO1 domain or mutant, unbound protein removed, then 0.64 µM CHMP4B-488 for 25 min; ALIX buffer: 25 mM Hepes pH 7.4, 0.3 mM BAPTA, 0.3 mM NTA, 0.3 mM hydroxyethyl EDTA, 686 µM CaCl2 (20 µM free calcium).
Chain of ALIX BRO1 domain (human) (Q9WU78 1-359): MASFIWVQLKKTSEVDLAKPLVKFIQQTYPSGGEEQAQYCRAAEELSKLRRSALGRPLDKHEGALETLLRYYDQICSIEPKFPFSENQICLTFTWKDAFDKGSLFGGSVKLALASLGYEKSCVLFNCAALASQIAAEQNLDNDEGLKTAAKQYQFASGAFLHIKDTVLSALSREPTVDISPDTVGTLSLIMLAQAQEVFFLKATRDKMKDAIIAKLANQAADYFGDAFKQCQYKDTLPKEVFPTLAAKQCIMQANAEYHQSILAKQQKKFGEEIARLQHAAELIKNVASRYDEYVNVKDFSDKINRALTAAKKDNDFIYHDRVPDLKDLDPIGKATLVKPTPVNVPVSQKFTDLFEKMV

B1: Alexa Fluor 488 CHMP4B (natural protein)
chain: MSVFGKLFGAGGGKAGKGGPTPQEAIQRLRDTEEMLSKKQEFLEKKIEQELTAAKKHGTKNKRAALQALKRKKRYEKQLAQIDGTLSTIEFQREALENANTNTEVLKNMGYAAKAMKAAHDNMDIDKVDELMQDIADQQELAEEISTAISKPVGFGEEFDEDELMAELEELEQEELDKNLLEISGPETVPLPNVPSIALPSKPAKKKEEEDDDMKELENWAGSM
modifications: Alexa Fluor 488 (labelled with Alexa Fluor 488 tetrafluorophenyl ester, 1:2 protein:dye)
As to B1, the apparent t1/2 of recruitment stood at 5 min.

Values taken from PMC7054990.
